Substitutions are numbered along the chain they refer to.
Key:
[1] = target: T1, biotinylated goat anti-human kappa light chain; assay: ELISA, positive control
T1 construct: positive control of the ELISA
Method in brief: (§1)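 ELISA measured binding of ACVR2A-specific monoclonal antibodies to human and mouse ACVR2A. Biotinylated goat anti-human kappa light chain served as positive control and human Fc as negative control.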

[2] = target: T2, human ACVR2A (human, UniProt P27037 20-135, limits assumed); assay: ELISA
T2 construct: also called activin receptor, type II A
T2 sequence (P27037 20-135 limits assumed): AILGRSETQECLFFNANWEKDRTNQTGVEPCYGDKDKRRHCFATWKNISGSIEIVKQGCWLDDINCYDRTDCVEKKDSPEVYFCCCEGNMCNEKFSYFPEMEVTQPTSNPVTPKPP
Method in brief: as §1

[3] = target: mouse ACVR2A (mouse, UniProt P27038 20-135, limits assumed); assay: ELISA
mouse ACVR2A, sequence (P27038 20-135 limits assumed): as the sequence (P27037 20-135 limits assumed) above, with K20R, V73I counted along it
Method in brief: as §1

[4] = target: T3, Goat anti-Human Kappa; assay: ELISA, positive control
T3 construct: Positive control of the ELISA; also called biotinylated goat anti-human kappa light chain
Method in brief: as §1

[5] = target: T4, Human ACVR2A (human, UniProt P27037 20-135, limits assumed); assay: ELISA
T4 construct: also called activin receptor, type II A
T4 sequence (P27037 20-135 limits assumed): as the sequence (P27037 20-135 limits assumed) above
Method in brief: as §1

[6] = target: Mouse ACVR2A (mouse, UniProt P27038 20-135, limits assumed); assay: ELISA
Mouse ACVR2A, sequence (P27038 20-135 limits assumed): as the sequence (P27037 20-135 limits assumed) above, with K20R, V73I counted along it
Method in brief: as §1
Also: test concentration or dose not given here.

B1: 374_B01 (antibody, V domains shown)
VH: EVQLLESGGGLVQPGGSLRLSCAASGFTFDSYGMHWVRQAPGKGLEWVAGINYNSGYTSYADSVKGRFTISRDNSKNTLYLQMNSLRAEDTAVYYCARAATWHDTHLDYWGQGTLVTVSS
VL: DIQMTQSPSSLSASVGDRVTITCRASQSILSYLNWYQQKPGKAPKLLIYAASSLQSGVPSRFSGSGSGTDFTLTISSLQPEDFATYYCQQSYDSPLTFGGGTKVEIK
notes: Group II
optical density [1]: 2.92 OD | optical density [2]: 3.14 OD | optical density [3]: 3.37 OD

B2: 366_B05 (antibody, V domains shown)
VH: B1 VH with D30S, S31D, G33S, H35N, A49S, T58K, A99G, T101N, H106A
VL: B1 VL with L30S, L47V, A51V, S52T, L54R, Q55A, D93E, S94L
notes: Group III
optical density [1]: 2.96 OD | optical density [2]: 2.38 OD | optical density [3]: 2.46 OD

B3: 371_D07 (antibody, V domains shown)
VH: B1 VH with S31D, H35N, G50N, S55G, T58K, S59G, T101N
VL: B1 VL with S31T, L47V, S52T, L54R, Q55A, D93E, S94L
notes: Group I
optical density [1]: 3.59 OD | optical density [2]: 2.66 OD | optical density [3]: 2.9 OD

B4: 375_A11 (antibody, V domains shown)
VH: B1 VH with D30S, S31D, A49S, G50S, T58K, T101N, H106A
VL: B1 VL with L30V, A50Y, A51V, S52T, S53N, Q55A, S94N
notes: Group I
optical density [1]: 3.05 OD | optical density [2]: 3.73 OD | optical density [3]: 3.7 OD

B5: 376_D08 (antibody, V domains shown)
VH: B1 VH with H35N, G50N, T58K, H106A
VL: B1 VL with S31T, L47V, A50Y, S52N, S53N, L54R, Q55P, D93S, S94N
notes: Group II
optical density [1]: 3.47 OD | optical density [2]: 3.81 OD | optical density [3]: 3.71 OD

B6: 365_B10 (antibody, V domains shown)
VH: B1 VH with S31D, G33S, G50S, T58K, S59G, T101N, H106A
VL: B1 VL with S31R, S52T, L54R, Q55A, Y92D, D93N, S94L
notes: Group I
optical density [1]: 3.21 OD | optical density [2]: 2.82 OD | optical density [3]: 2.78 OD

B7: 365_E10 (antibody, V domains shown)
VH: B1 VH with G33S, H35N, A49S, G50S, T58K, S59G, A99G, T101N
VL: not shown
notes: Group III
optical density [1]: 3.34 OD | optical density [2]: 1.82 OD | optical density [3]: 2.05 OD

B8: 366_A08 (antibody, V domains shown)
VH: B1 VH with S31D, G33S, H35N, A49S, T58K, S59G, A99G, T101N
VL: B1 VL with L30V, L33V, L47V, S52T, L54R, Q55A, D93N
notes: Group III
optical density [1]: 3.23 OD | optical density [2]: 1.65 OD | optical density [3]: 1.73 OD

B9: 366_A06 (antibody, V domains shown)
VH: B1 VH with D30S, S31D, G33S, H35N, G50S, S55G, T58K, A99G, T101N
VL: not shown
notes: Group III
optical density [1]: 3.24 OD | optical density [2]: 1.97 OD | optical density [3]: 2.25 OD

B10: 370_A03 (antibody, V domains shown)
VH: B1 VH with D30S, G33S, H35N, A49S, G50N, S55G, A99S, T101N, H106A
VL: B1 VL with S52T, L54R, Q55A
optical density [4]: 3.56 OD | optical density [5]: 3.54 OD | optical density [6]: 3.63 OD

B11: 375_A04 (antibody, V domains shown)
VH: B1 VH with H35N, S55G, T58K, T101N, H106A
VL: B1 VL with S31T, L47V, A50Y, A51V, S52N, S53N, Q55P, D93N
notes: Group I
optical density [1]: 3.1 OD | optical density [2]: 3.72 OD | optical density [3]: 3.73 OD

B12: 374_F03 (antibody, V domains shown)
VH: B1 VH with D30S, H35N, G50S, S55G, T101N
VL: B1 VL with L30I, L33V, L47V, S52T, L54R, Q55A, S94T
notes: Group I
optical density [1]: 3.23 OD | optical density [2]: 3.53 OD | optical density [3]: 3.62 OD

B13: 375_H04 (antibody, V domains shown)
VH: B1 VH with D30S, S59G
VL: B1 VL with L47V, S52T, L54R, Q55A, D93S, S94N
notes: Group II
optical density [1]: 3.15 OD | optical density [2]: 3.11 OD | optical density [3]: 3.16 OD

B14: 376_F09 (antibody, V domains shown)
VH: B1 VH with G33S, A49S, G50S, S55G, T58K
VL: B1 VL with S31T, L33V, A51V, S52T, L54R, Q55A, S94T
notes: Group II
optical density [1]: 3.35 OD | optical density [2]: 3.5 OD | optical density [3]: 3.59 OD

B15: 375_G08 (antibody, V domains shown)
VH: B1 VH with D30S, A49S, S55G
VL: B1 VL with L30S, L33V, A51V, S52T, L54R, Q55A, D93S, S94T
notes: Group II
optical density [1]: 3.27 OD | optical density [2]: 3.33 OD | optical density [3]: 3.43 OD

B16: 374_B07 (antibody, V domains shown)
VH: B1 VH with D30S, A49S, G50S, S55G, T58K
VL: B1 VL with L30I, S52T, Q55A, D93E
notes: Group II
optical density [1]: 3.29 OD | optical density [2]: 3.71 OD | optical density [3]: 3.71 OD

B17: 376_G02 (antibody, V domains shown)
VH: B1 VH with D30S, S31D, H35N, A49S, S55G, T101N, H106A
VL: B1 VL with L30S, S31R, L47V, S52T, Q55A, S94N
notes: Group I
optical density [1]: 3.55 OD | optical density [2]: 3.69 OD | optical density [3]: 3.7 OD

B18: 367_D10 (antibody, V domains shown)
VH: B1 VH with H35N, A49S, G50N, S55G, A99S, T101N, H106A
VL: B1 VL with L30I, L47V, S52T, L54R, Q55A, S94T
optical density [4]: 3.38 OD | optical density [5]: 2.7 OD | optical density [6]: 2.67 OD

B19: 375_D02 (antibody, V domains shown)
VH: B1 VH with D30S, G33S, H35N, A49S, G50N, S55G
VL: B1 VL with S31T, D93E, S94L
notes: Group II
optical density [1]: 3.2 OD | optical density [2]: 3.63 OD | optical density [3]: 3.56 OD

B20: 367_C05 (antibody, V domains shown)
VH: B1 VH with S31D, H35N, A49S, G50S, S55G, S59G, A99S, T101N
VL: B1 VL with L33V, L47V, S52T, L54R, Q55H, S94L
optical density [4]: 3.42 OD | optical density [5]: 2.21 OD | optical density [6]: 2.86 OD

B21: 367_E04 (antibody, V domains shown)
VH: EVQLLESGGGLVQPGGSLRLSCAASGFTFSDYSMNWVRQAPGKGLEWVSSINYNGGYKGYADSVKGRFTISRDNSKNTLYLQMNSLRAEDTAVYYCARSANWHDTHLDYWGQGTLVTVSS
VL: B1 VL with S52T, L54R, Q55A, D93E
optical density [4]: 3.5 OD | optical density [5]: 2.41 OD | optical density [6]: 2.57 OD

B22: 375_F12 (antibody, V domains shown)
VH: B1 VH with G50S, S55G, T101N, H106A
VL: B1 VL with S31T, L47V, S52T, L54R, Q55A, Y92D, D93E, S94L
notes: Group I
optical density [1]: 3.17 OD | optical density [2]: 2.95 OD | optical density [3]: 3.14 OD

B23: 367_C11 (antibody, V domains shown)
VH: B21 VH with S30D, D31S, G55S, K58T
VL: B1 VL with L47V, S52T, L54R, Q55H, D93N, S94T
optical density [4]: 3.45 OD | optical density [5]: 2.33 OD | optical density [6]: 2.54 OD

B24: 375_C03 (antibody, V domains shown)
VH: B1 VH with G33S, A49S, S55G
VL: B1 VL with L33V, L47V, S52T, L54R, Q55A, D93E
notes: Group II
optical density [1]: 3.16 OD | optical density [2]: 3 OD | optical density [3]: 3.24 OD

B25: 367_C01 (antibody, V domains shown)
VH: B21 VH with S30D, S50G, G59S
VL: B1 VL with S31T, L47V, A51T, S52T, Q55H, S94T
optical density [4]: 3.71 OD | optical density [5]: 2.62 OD | optical density [6]: 2.99 OD

B26: 367_E11 (antibody, V domains shown)
VH: B21 VH with S30D, D31S, S33G, G55S
VL: B1 VL with L30V, L33V, L47V, S52T, L54R, Q55H, S94T
optical density [4]: 3.61 OD | optical density [5]: 2.4 OD | optical density [6]: 2.91 OD

B27: 375_C10 (antibody, V domains shown)
VH: B1 VH with D30S, G50S, S55G, T101N, H106A
VL: not shown
notes: Group I
optical density [1]: 3.33 OD | optical density [2]: 3.46 OD | optical density [3]: 3.6 OD

B28: 367_E09 (antibody, V domains shown)
VH: B21 VH with S33G, S49A, G55S, H106A
VL: B1 VL with L47V, A51T, S52T, L54R, Q55A, D93E, S94T
optical density [4]: 3.33 OD | optical density [5]: 1.66 OD | optical density [6]: 1.81 OD

B29: 374_H02 (antibody, V domains shown)
VH: B1 VH with D30S, G50S, S55G
VL: B1 VL with L33V, S52T, Q55A, S94T
notes: Group II
optical density [1]: 3.18 OD | optical density [2]: 3.26 OD | optical density [3]: 3.26 OD

B30: 367_E01 (antibody, V domains shown)
VH: B21 VH with D31S, S33G, S49A, S50G, G59S, H106A
VL: B1 VL with L33V, A51T, S52T, L54R, Q55A, S94L
optical density [4]: 3.61 OD | optical density [5]: 2.55 OD | optical density [6]: 2.52 OD

B31: 375_H01 (antibody, V domains shown)
VH: B1 VH with D30S, S31D, G33S, H35N, T101N
VL: B1 VL with S31T, S52T, L54R, Q55H, D93S, S94N
notes: Group I
optical density [1]: 3.1 OD | optical density [2]: 2.79 OD | optical density [3]: 3.06 OD

B32: 367_E06 (antibody, V domains shown)
VH: B21 VH with S30D, D31S, G55S
VL: not shown
optical density [4]: 3.48 OD | optical density [5]: 2.02 OD | optical density [6]: 2.31 OD

B33: 376_H12 (antibody, V domains shown)
VH: B1 VH with D30S, S31D, G50S, S55G
VL: B1 VL with L30I, S31T, L47V, S52T, L54R, Q55A, D93E
notes: Group II
optical density [1]: 3.49 OD | optical density [2]: 3.23 OD | optical density [3]: 3.08 OD

B34: 374_B02 (antibody, V domains shown)
VH: B1 VH with G33S, T101N
VL: B1 VL with L30I, S52T, L54R, Q55A
notes: Group I
optical density [1]: 3.02 OD | optical density [2]: 3.42 OD | optical density [3]: 3.54 OD
